Key:
KicGAS [1] = molecular target: T1, KicGAS (Kaposi sarcoma-associated herpesvirus …, UniProt Q2HR80 1-131); assay: fluorescence polarization; Hill n 2.55; EMSA: 20 mM Tris-HCl pH 7.4, 150 mM NaCl, 10% glycerol, on ice, 20 nM FAM-DNA, gel at 4 C; FP: 400 pg/ul FAM-DNA, buffer and temperature not stated; Hill fits; conditions: protein: recombinant; tags: Avi-His6-SUMO removed (tag-free); label: 5' FAM sense strand; blunt
T1 sequence: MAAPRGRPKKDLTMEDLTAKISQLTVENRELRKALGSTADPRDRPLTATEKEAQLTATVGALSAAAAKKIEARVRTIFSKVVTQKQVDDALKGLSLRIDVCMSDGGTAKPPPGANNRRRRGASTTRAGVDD

KicGAS [2] = molecular target: T1, KicGAS; assay: fluorescence polarization; Hill n 2.24; EMSA: 20 mM Tris-HCl pH 7.4, 150 mM NaCl, 10% glycerol, on ice, 20 nM FAM-DNA, gel at 4 C; FP: 400 pg/ul FAM-DNA, buffer and temperature not stated; Hill fits; conditions: protein: recombinant, tags: Avi-His6-SUMO removed (tag-free)
KicGAS [3] = molecular target: T1, KicGAS; assay: fluorescence polarization; Hill n 2.1; EMSA: 20 mM Tris-HCl pH 7.4, 150 mM NaCl, 10% glycerol, on ice, 20 nM FAM-DNA, gel at 4 C; FP: 400 pg/ul FAM-DNA, buffer and temperature not stated; Hill fits; conditions: protein: recombinant; tags: Avi-His6-SUMO removed (tag-free); label: 5' FAM sense strand; blunt
KicGAS [4] = molecular target: T1, KicGAS; assay: EMSA; Hill n 2.20; EMSA: 20 mM Tris-HCl pH 7.4, 150 mM NaCl, 10% glycerol, on ice, 20 nM FAM-DNA, gel at 4 C; FP: 400 pg/ul FAM-DNA, buffer and temperature not stated; Hill fits; conditions: protein: recombinant; tags: Avi-His6-SUMO removed (tag-free); label: 5' FAM sense strand; blunt
KicGAS [5] = molecular target: T1, KicGAS; assay: fluorescence polarization; Hill n 1.85; EMSA: 20 mM Tris-HCl pH 7.4, 150 mM NaCl, 10% glycerol, on ice, 20 nM FAM-DNA, gel at 4 C; FP: 400 pg/ul FAM-DNA, buffer and temperature not stated; Hill fits; conditions: protein: recombinant, tags: Avi-His6-SUMO removed (tag-free)
KicGAS [6] = molecular target: T1, KicGAS; assay: fluorescence polarization; Hill n 1.84; EMSA: 20 mM Tris-HCl pH 7.4, 150 mM NaCl, 10% glycerol, on ice, 20 nM FAM-DNA, gel at 4 C; FP: 400 pg/ul FAM-DNA, buffer and temperature not stated; Hill fits; conditions: protein: recombinant; tags: Avi-His6-SUMO removed (tag-free); label: 5' FAM sense strand; blunt
KicGAS [7] = molecular target: T1, KicGAS; assay: EMSA; Hill n 1.95; EMSA: 20 mM Tris-HCl pH 7.4, 150 mM NaCl, 10% glycerol, on ice, 20 nM FAM-DNA, gel at 4 C; FP: 400 pg/ul FAM-DNA, buffer and temperature not stated; Hill fits; conditions: protein: recombinant; tags: Avi-His6-SUMO removed (tag-free); label: 5' FAM sense strand; blunt
KicGAS [8] = molecular target: T1, KicGAS; assay: fluorescence polarization; Hill n 1.50; EMSA: 20 mM Tris-HCl pH 7.4, 150 mM NaCl, 10% glycerol, on ice, 20 nM FAM-DNA, gel at 4 C; FP: 400 pg/ul FAM-DNA, buffer and temperature not stated; Hill fits; conditions: protein: recombinant; tags: Avi-His6-SUMO removed (tag-free); label: 5' FAM
KicGAS [9] = molecular target: T1, KicGAS; assay: fluorescence polarization; Hill n 2.15; EMSA: 20 mM Tris-HCl pH 7.4, 150 mM NaCl, 10% glycerol, on ice, 20 nM FAM-DNA, gel at 4 C; FP: 400 pg/ul FAM-DNA, buffer and temperature not stated; Hill fits; conditions: protein: recombinant; tags: Avi-His6-SUMO removed (tag-free); label: 5' FAM
KicGAS [10] = molecular target: T1, KicGAS; assay: fluorescence polarization; Hill n 1.33; EMSA: 20 mM Tris-HCl pH 7.4, 150 mM NaCl, 10% glycerol, on ice, 20 nM FAM-DNA, gel at 4 C; FP: 400 pg/ul FAM-DNA, buffer and temperature not stated; Hill fits; conditions: protein: recombinant; tags: Avi-His6-SUMO removed (tag-free); label: 5' FAM
KicGAS [11] = molecular target: T1, KicGAS; assay: fluorescence polarization; Hill n 2.31; EMSA: 20 mM Tris-HCl pH 7.4, 150 mM NaCl, 10% glycerol, on ice, 20 nM FAM-DNA, gel at 4 C; FP: 400 pg/ul FAM-DNA, buffer and temperature not stated; Hill fits; conditions: protein: recombinant; tags: Avi-His6-SUMO removed (tag-free); label: 5' FAM sense strand; blunt
KicGAS [12] = molecular target: T1, KicGAS; assay: fluorescence polarization; Hill n 2.05; EMSA: 20 mM Tris-HCl pH 7.4, 150 mM NaCl, 10% glycerol, on ice, 20 nM FAM-DNA, gel at 4 C; FP: 400 pg/ul FAM-DNA, buffer and temperature not stated; Hill fits; conditions: protein: recombinant; tags: Avi-His6-SUMO removed (tag-free); label: 5' FAM sense strand; blunt
KicGAS [13] = molecular target: T1, KicGAS; assay: fluorescence polarization; Hill n 1.69; EMSA: 20 mM Tris-HCl pH 7.4, 150 mM NaCl, 10% glycerol, on ice, 20 nM FAM-DNA, gel at 4 C; FP: 400 pg/ul FAM-DNA, buffer and temperature not stated; Hill fits; conditions: protein: recombinant; tags: Avi-His6-SUMO removed (tag-free); label: 5' FAM sense strand; blunt
KicGAS [14] = molecular target: T1, KicGAS; assay: fluorescence polarization; Hill n 2.21; EMSA: 20 mM Tris-HCl pH 7.4, 150 mM NaCl, 10% glycerol, on ice, 20 nM FAM-DNA, gel at 4 C; FP: 400 pg/ul FAM-DNA, buffer and temperature not stated; Hill fits; conditions: protein: recombinant; tags: Avi-His6-SUMO removed (tag-free); label: 5' FAM
KicGAS [15] = molecular target: T1, KicGAS; assay: fluorescence polarization; Hill n 2.36; EMSA: 20 mM Tris-HCl pH 7.4, 150 mM NaCl, 10% glycerol, on ice, 20 nM FAM-DNA, gel at 4 C; FP: 400 pg/ul FAM-DNA, buffer and temperature not stated; Hill fits; conditions: protein: recombinant; tags: Avi-His6-SUMO removed (tag-free); label: 5' FAM sense strand; blunt
KicGAS [16] = molecular target: T1, KicGAS; assay: fluorescence polarization; Hill n 0.90; EMSA: 20 mM Tris-HCl pH 7.4, 150 mM NaCl, 10% glycerol, on ice, 20 nM FAM-DNA, gel at 4 C; FP: 400 pg/ul FAM-DNA, buffer and temperature not stated; Hill fits; conditions: protein: recombinant; tags: Avi-His6-SUMO removed (tag-free); label: 5' FAM
KicGAS [17] = molecular target: T1, KicGAS; assay: fluorescence polarization; Hill n 2.33; EMSA: 20 mM Tris-HCl pH 7.4, 150 mM NaCl, 10% glycerol, on ice, 20 nM FAM-DNA, gel at 4 C; FP: 400 pg/ul FAM-DNA, buffer and temperature not stated; Hill fits; conditions: protein: recombinant; tags: Avi-His6-SUMO removed (tag-free); label: 5' FAM sense strand; blunt
KicGAS [18] = molecular target: T1, KicGAS; assay: fluorescence polarization; Hill n 1.70; EMSA: 20 mM Tris-HCl pH 7.4, 150 mM NaCl, 10% glycerol, on ice, 20 nM FAM-DNA, gel at 4 C; FP: 400 pg/ul FAM-DNA, buffer and temperature not stated; Hill fits; conditions: protein: recombinant; tags: Avi-His6-SUMO removed (tag-free); label: 5' FAM sense strand; blunt
KicGAS [19] = molecular target: T1, KicGAS; assay: fluorescence polarization; Hill n 1.88; EMSA: 20 mM Tris-HCl pH 7.4, 150 mM NaCl, 10% glycerol, on ice, 20 nM FAM-DNA, gel at 4 C; FP: 400 pg/ul FAM-DNA, buffer and temperature not stated; Hill fits; conditions: protein: recombinant; tags: Avi-His6-SUMO removed (tag-free); label: 5' FAM sense strand; blunt
KicGAS [20] = molecular target: T1, KicGAS; assay: fluorescence polarization; EMSA: 20 mM Tris-HCl pH 7.4, 150 mM NaCl, 10% glycerol, on ice, 20 nM FAM-DNA, gel at 4 C; FP: 400 pg/ul FAM-DNA, buffer and temperature not stated; Hill fits; conditions: protein: recombinant; tags: Avi-His6-SUMO removed (tag-free); label: 5' FAM sense strand; blunt

B1: KS90 (dsDNA)
DNA 1: TCGTCTCGCCTGTCAAATCGTCTATGTTTTTCGGCGCGTTGTGCCAATATAACTCTAGAAACTAATACTGTATCTGTCAGCAGTACTACA
DNA 2: TGTAGTACTGCTGACAGATACAGTATTAGTTTCTAGAGTTATATTGGCACAACGCGCCGAAAAACATAGACGATTTGACAGGCGAGACGA
B1 gave a Kd (KicGAS [1]) of 100 ± 10 nM.

B2: ssKS90 (ssDNA)
DNA: TCGTCTCGCCTGTCAAATCGTCTATGTTTTTCGGCGCGTTGTGCCAATATAACTCTAGAAACTAATACTGTATCTGTCAGCAGTACTACA
In the case of B2, the Kd (KicGAS [2]; label: 5' FAM) is reported as 100 ± 10 nM.

B3: ISD45 (dsDNA)
DNA 1: TACAGATCTACTAGTGATCTATGACTGATCTGTACATGATCTACA
DNA 2: TGTAGATCATGTACAGATCAGTCATAGATCACTAGTAGATCTGTA
B3 was tested, and the Kd (KicGAS [3]) was 150 ± 20 nM and the Kd (KicGAS [4]) was 120 ± 10 nM.

B4: DNA-RNA hybrid 45 (DNA:RNA)
RNA: UACAGAUCUACUAGUGAUCUAUGACUGAUCUGUACAUGAUCUACA
DNA: TGTAGATCATGTACAGATCAGTCATAGATCACTAGTAGATCTGTA
Binder B4 has a Kd (KicGAS [5]; label: 5' FAM sense strand (RNA), blunt) of 300 ± 20 nM.

TACAGATCTACTAGTGATCTATGACTGATCTGTACATGATCTACA (ssDNA) [ssISD45] showed a Kd (KicGAS [5]; label: 5' FAM) of 260 ± 10 nM.

B5: ISD25 (dsDNA)
DNA 1: CTAGTGATCTATGACTGATCTGTAC
DNA 2: GTACAGATCAGTCATAGATCACTAG
Binder B5 has a Kd (KicGAS [6]) of 440 ± 30 nM and a Kd (KicGAS [7]) of 380 ± 30 nM.

For ATCTACTAGTGATCTATGACTGATCTGTAC (ssDNA) [ssISD30], the Kd (KicGAS [8]) was 720 ± 50 nM.

B6: ssHSV60 (ssDNA)
DNA: TAAGACACGATGCGATAAAATCTGTTTGTAAAATTTATTAAGGGTACAAATT
For B6, the Kd (KicGAS [9]) was 170 ± 10 nM.

B7: HSV60 (dsDNA)
DNA 1: TAAGACACGATGCGATAAAATCTGTTTGTAAAATTTATTAAGGGTACAAATT
DNA 2: AATTTGTACCCTTAATAAATTTTACAAACAGATTTTATCGCATCGTGTCTTA
For B7, the Kd (KicGAS [2]; label: 5' FAM sense strand, blunt) was 160 ± 10 nM.

In the case of CTAGTGATCTATGACTGATCTGTAC (ssDNA) [ssISD25], the Kd (KicGAS [10]) is reported as 1580 ± 220 nM.

B8: 30% GC (dsDNA)
DNA 1: ATATCGCTATAGATATCATC
DNA 2: GATGATATCTATAGCGATAT
B8 gave a Kd (KicGAS [11]) of 1070 ± 60 nM.

B9: 90% GC (dsDNA)
DNA 1: CCGCCAGCCCGCGGGCTGGC
DNA 2: GCCAGCCCGCGGGCTGGCGG
Work on B9 yielded a Kd (KicGAS [12]) of 1160 ± 80 nM.

B10: dsRNA45 (dsRNA)
RNA 1: UACAGAUCUACUAGUGAUCUAUGACUGAUCUGUACAUGAUCUACA
RNA 2: UGUAGAUCAUGUACAGAUCAGUCAUAGAUCACUAGUAGAUCUGUA
In the case of B10, the Kd (KicGAS [13]) is reported as 560 ± 50 nM.

B11: ssVACV72 (ssDNA)
DNA: ATCCATCAGAAAGAGGTTTAATATTTTTGTGAGACCATCGAAGAGAGAAAGAGATAAAACTTTTTTACGACT
With B11 the Kd (KicGAS [14]) was 130 ± 10 nM.

B12: VACV72 (dsDNA)
DNA 1: ATCCATCAGAAAGAGGTTTAATATTTTTGTGAGACCATCGAAGAGAGAAAGAGATAAAACTTTTTTACGACT
DNA 2: AGTCGTAAAAAAGTTTTATCTCTTTCTCTCTTCGATGGTCTCACAAAAATATTAAACCTCTTTCTGATGGAT
Binder B12 has a Kd (KicGAS [15]) of 130 ± 10 nM.

For ATCTATGACTGATCTGTACA (ssDNA) [ssISD20], the Kd (KicGAS [16]) was 5.08 ± 0.4 µM.

B13: 0% GC (dsDNA)
DNA 1: ATTTAATAATAATTTATTAT
DNA 2: ATAATAAATTATTATTAAAT
B13 was tested, and the Kd (KicGAS [17]) was 800 ± 50 nM.

B14: ISD20 (dsDNA)
DNA 1: ATCTATGACTGATCTGTACA
DNA 2: TGTACAGATCAGTCATAGAT
B14 was tested, and the Kd (KicGAS [18]) was 820 ± 80 nM.

B15: ISD30 (dsDNA)
DNA 1: ATCTACTAGTGATCTATGACTGATCTGTAC
DNA 2: GTACAGATCAGTCATAGATCACTAGTAGAT
B15 gave a Kd (KicGAS [19]) of 290 ± 20 nM.

B16: ISD12 (dsDNA)
DNA 1: ACTGATCTGTAC
DNA 2: GTACAGATCAGT
B16: no binding (KicGAS [20]).
